Measured values reported in the nanobody polyreactivity screen of Harvey et al. (2022).

Assay: yeast display, Sf9 membrane polyspecificity reagent, FACS + sequencing; frameworks hold sequencing errors
In short: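 A synthetic nanobody library was expressed on Saccharomyces cerevisiae BJ5465 by galactose induction for 36–48 hours. The library was stained for 1 hour at 4 °C with 10% biotinylated, detergent-solubilized Sf9 membrane reagent and enriched with streptavidin microbeads before FACS. Low and high (top ~1%) gates were set on anti-HA fluorescence for expression and streptavidin fluorescence for reagent binding, and each polyreactivity label reflects the gate of origin.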

Sequence | polyreactivity (PSR sort gate)
QVQLVESGGGLVQAGGSLRLSCAASGSIFFEYAMGWYRQAPGKERELVAAISRRGGSTYYADSVKGRFTISRDNAKNTVYLQMNSLKPEDTAVYYCNKVNRASRGDYDYWGQGTQVTVSS | high polyreactivity
QVQLEESGGGLVQAGGSLRLSCAASGSILVKYAMGRYRQAPGKERELVASITSTGNTYYADSVKGRFTISRDNAKNTVYLQMNSLKPEDTAVYYCAADAAFTYVYFQSDGYNYWGQGTQVTVSS | low polyreactivity
QVQLVESGGGLDQAGGSLRLTCAASGFTFTIYAMGWYRQAPGKERELVATISGRAGRTYYADSVMGRFTISRDNAKNTVSLQMTSLKPEDTAVYYCNAGQWRYPGLYYYWGQGTQVNVSS | high polyreactivity
QVQLVESGGGLVQAGGSLRLSCAASGSILGPYAMGWYRQAPGKERELVAGISGSGTRTYYADSVKGRFTISRDNAKNTVYLQMNSLKPEDPAVYYCAARYYSSWIRYPTYDYWGQGTQVTVSS | high polyreactivity
QVQLVESGGGLVQAGGSLRLSCAASGSTFNNNAMGWYRQAPGKERELVAAISYTGGSTYYADSVKGRFTISRDNAKNTVYLQMKSLKPEDTAVYYCDAAYPHFGGYRYDYWGQGTQVTVSS | high polyreactivity
QVQLVESGGGLVQAGGSLRLSCAASGSTFRVNAMGWYRQAHGKEREFVAGISFGGGSTYYADSVKGRFTISRDNAKNTVYFQMNSLKPEDTADYYCNARGKGSGAVRYNYWGQGTLVTVSS | high polyreactivity
QVQLVESRGGLVQAGGSLRLSCAASGSIFLYAMGWYRQEPGKQRELVAAISGGGRTNYADSVKGRFTISRDNAKNTVYLQMNSMKPEDTAVYYCAADPVYWYSPMDYWGQGTQVTVSS | low polyreactivity
QVQLVESGGGLVQAGGSLRLSCAASGSTFDVNALGWYSQAPGKDRELVAAISWNSGSTYYADSVKGRFTISRDNAKNTVYLQMNSLKPEDTAVYYCAATYGTGRRSKYGYWGQGTQVTVSS | high polyreactivity
QVQREESGGGLVQAGGSLRLSCAASGFTFRYYAMGRYRQAPGKERELVAAITWSGGSTYYADSVKGRFTISRDNAKNTVYLQLNSLKPEDTAVYYCNVEAVAWWPEEDYWGQGTQVTVSS | high polyreactivity
QVQLVESGAGLVQAGGSLRLSCAASGLTFLQNALGWSRQAPGNERELVAAINIGTNTYADSVKGRFTISRDNAKNTVYLQMNSLKPEDTAVDYCNTDSAPYYWLSDNYDSWGQGTQVTVSS | low polyreactivity
QVQLVESGGGLVQAGGSLRLSCAASGFTFPYYAMGWYRQAPGKERELVAAISKSGGSTYYADSVKGRFTISRDYAKNTVYLQMNSLKPEDTAVYYCAADWYWWSYSDRHDYWGQGIQVTVSS | high polyreactivity
QVQLVESGGGLVQAGGRLRLSCAASGITFPGNVMGWSRHAPGKERELVAAISSTGSTNYADSVKGRFTISRDNAKNTVYLQMNSLKPEDTAVYYCAARFWYDYRHYDYWGQGTQVTVSS | low polyreactivity
QVHLVESGGGLVQAGGSLRLSCAASGRIFADYAMGWYRHAPGKERELVAAISSTSSTNYADSVKGRFTISRDNAKNTVYLQMKSLKPEDTAVYYCAATAGSLTADYVSYTYNYWGQGTQVTVSS | low polyreactivity
QVQLVESGGGLVQAGGSLRLSCAASGRTFAAYAMGWYIQSPGKERELVAAISSTSGNTYYADSVKGRFTISRDNAKNTVYLQMNSLKPEDTAVYYCNAQRRFNANYWYDYWGQGTQVTVSS | high polyreactivity
QVQLVESGAGLVQAGGSLRLSCAASGLTSTNNAMGWYRQAPGKERELVAAITSGSTTNYADSVKGRFTISRDNAKNTVYLQMNSLKPEDTAVYYCAAQYGVWWRRYYYPEYDYWGQGTQVTVSS | low polyreactivity
QLQLGESGRGGVQAGGSLRVSCAPSGLPFIYYAMGWYRPAPGKVRELVATISQSGSSTYYADSVKGRFTSSRDHATNTVDLQMNSLKPADTAVDYCNVSSVRWARFDYWGQGTQVTVSS | high polyreactivity

Sequence | polyreactivity (PSR sort gate)
QVHLVESGGGLVQAGGSLRLSCAASGFTFNRYAMGWYRQAPGKERELVATISSGGNTNYADSVKGRFTISRDNAKKTVYLQMNSLKPEDTAVYYCNADRWFHYYSYNYWGQGTQVTVSS | high polyreactivity
QVQLVESGGGLVQAGGSLRLSCAASGSTYVSNAMGWYRQAPGKERELVAAISTSGGTTYYADSVKGRFTISRDNAKNTVYLQMNSLKPEDTAVYYCAADYKAYGRSYDYWGQGTQVTVSS | low polyreactivity
QVQLVESGGGLVQAGGSLRLSCAASGSIFWVYAMGWYRQAPGKERELVAAISQSGGSTYYADSVKGRFTISRDNAKNTVYLQMNSLKPEYTAVYYCAAYVRGQNYDYWGQGTQVTVSS | high polyreactivity
QVQLVESGGGLVQAGGSLRLSCAASGSTFYPYAMGWYRQAPGNERELVAALDRGGSTSYADSVKGRFTISRDNAKNTVYLQMIRLKPEDTAVYYCAVARGGRRKYEYWGQGTQVTVSS | low polyreactivity
QVQLVESGGGLVQAGGSLSLSCAASGRTFYVYAMGWYIQAPGKERELVATISRGGSTTYADSVKGLFTISRDNAKNTVYLQMNSLKPEDTAVYYCATELLGGRRTVAYFWGQGSQVTVSS | low polyreactivity
QVQLQESGGGLVQAGGSLRLSCSASGNISVTGVMGWYRQAPGKERELVPSIGIGGTTYYADSVKGRFSISRDNATITVYLQMNSLKPQDTAVYYCAARYLYYAYSYWGQGTQVTVSS | low polyreactivity
QVQLVESGGGLVQAGGSLRLSCAASGFIFYRYAMGWYRQAPGKERELVAAITGSGARTYYADSVKGRFTISRDNAKNTVYLQMNSLKPEDTAVYYCNARGYRGYDYWGQGTQVTVSS | high polyreactivity
QVQLVESGGGLVQAGGSLRLSCAASGRTFRVYAMGWYRQAPGKERELVAAITRGGSTYYADSVKGRFTISRDNAKNTVYLQMNSLKPEDTAVYYCATYSHALRYDYWGQGTQVTVSS | high polyreactivity
QVQLVESGGGLVQAGGSLRLSCAASGRIFSKYAMGWYRQAPGKERELVAAIRSGGRTYYADSVKGRFTISRDNAKNTVYLQMNSLKPEDTAVYYCAKGTFRYPFSFTFLGYDYWGQGTQVTVSS | high polyreactivity
QVQLVESRGGLVQAGGSLRLTCAASGYTFVYNGMGWYRQAPGKERELVAAFRRRTGTTYYADSVKGRFTISRDNAKNTVYLQMNSLKPEDSSVYYSAATGFWCYDWGQGSQVTVSS | high polyreactivity
QVQLVESGGGLVQAGGSLRLSCAASGSTFWAYAMGWSRQAPGKERELVAAITSGGSTYADSVKGRFTISRDNAKNTVYLQMNSLKPEDTAVYYCAADVYYSGWWFDYWGQGTQVTVSS | high polyreactivity
QVQLVESGGGLVQAGGSLRLSCAASGSTFSRYAMGWYRPAPGKERELVATITRGGSTNYADSVKGRFTISRDNAQNTVYLQMTSLKPEDTAVYYCNKTARYVDGRGDYWGQGTQVTVSS | low polyreactivity
QVQLVESGGGLVQAGGSLRLSCAASGRIFIYYAMGWYRQAPGKERELVAAITRGGNTNYADSVKGRFTISRDNAKNTVYLQMNSLKPEDTAVYYCAAAIRYGSRHRGYWGQGTQVTVSS | low polyreactivity
QVQLVESGGGLVQAGGSLRLSCAASGSNFVGYVMGRYRQAPGKERELVARIRWGGGRTYYADSVKGRFTISRDNAKNRVYLQMKSLKAEDTAVYYCAAVWRTRWAPGYYWGQGTQVTGSS | high polyreactivity
QVQLVESGGGLVQAGGSLRLSCAASGSIFNLYAMGWYRQAPGKEREMVAAISYSTGSTYYADSVKGRFTISRDNAKNTVYLQMTSLKPEDTAVYYCNAQEGILGWVLYDYWGQGTQVTVSS | high polyreactivity
QVQLVESGGGLVQAGGSLRLSCAASGYTFYDYAMGWYRQAPGKERELVARINGGGGTNYADSVKGRFTISRDNAKNTVYLQMNSLKPEDTAVYYCAADVYFRQGDVDLLRYDYWGQGTQVTVSS | low polyreactivity
